# Legend:
# Assay in all cases: SEC; purified mutant TNFα alone on a size exclusion column; single peak; column and buffer not given
# [1] = target: mTNFα mutant 1, [Q6R, N7T, S8P]mTNF-α(1–156) (mouse)
# [2] = target: mTNFα mutant 2, [Q6R, N7T, S8P, A52S, D53E]mTNF-α(1–156) (mouse)
# [3] = target: mTNFα mutant 3, [S30N, Q31R]mTNF-α(1–156) (mouse)
# [4] = target: mTNFα mutant 4, [D71S, Y72H, ins 71_T_72]mTNF-α(1–156) (mouse)
# [5] = target: mTNFα mutant 5, [P101Q, K102R, D103E, L110A]mTNF-α(1–156) (mouse)
# [6] = target: mTNFα mutant 6, D71S, Y72H, ins 71_T_72, P101Q, K102R,D103E,L110A]mTNF-α(1–156) (mouse)
# [7] = target: mTNFα mutant 7, [E88T]mTNF-α(1–156) (mouse)
# [8] = target: mTNFα mutant 8, [L137R, K139D]mTNF-α(1–156) (mouse)
# [9] = target: mTNFα mutant 9, [H20P, V22A, E24G, E27Q]mTNF-α(1–156) (mouse)
# [10] = target: mTNFα mutant 10, [H20P, V22A, E24G, E27Q, S30N, Q31R, L137R, K139D]mTNF-α(1–156) (mouse)
# [11] = target: mTNFα mutant 11, [Q130R]mTNF-α(1–156) (mouse)
# [12] = target: mTNFα mutant 12, [D42E, K44R, F82I, I84V, E88T, Q130R]mTNF-α(1–156) (mouse)
# [13] = target: mTNFα mutant 13, [M41V, V58I, V79I, V96I, V135I, V153I]mTNF-α(1–156) (mouse)
# [14] = target: mTNFα mutant 14, [H20P, V22A, E24G, E27Q, M41V, V58I, V79I, V96I, V135I, V153I]mTNF-α(1–156) (mouse)
# [15] = target: mTNFα mutant 15, [H20P, V22A, E24G, E27Q, S30N, Q31R, M41V, V58I, V79I, V96I, V135I, L137R, K139D, V153I]mTNF-α(1–156) (mouse)
# [16] = target: mTNFα mutant 16, [L1V, Q6R, N7T, S8P, H20P, V22A, E24G, E27Q, S30N, Q31R, M41V, V58I, V79I, V96I, V135I, L137R, K139D, V153I]mTNF-α(1–156) (mouse)
# [17] = target: mTNFα mutant 17, [L1V, Q6R, N7T, S8P, H20P, V22A, E24G, E27Q, S30N, Q31R, M41V, D42E, K44R, A52S, D53E, V58I, V79I, F82I, I84V, E88T, V96I, Q130R, V135I, L137R, K139D, V153I]mTNF-α(1–156) (mouse)
# [18] = target: mTNFα mutant 18, [L1V, Q6R, N7T, S8P, H20P, V22A, E24G, E27Q, S30N, Q31R, M41V, V58I, V79I, V96I, V135I, V153I]mTNF-α(1–156) (mouse)
# [19] = target: mTNFα mutant 19, [L1V, Q6R, N7T, S8P, H20P, V22A, E24G, E27Q, S30N, Q31R, M41V, D42E, K44R, V58I, V79I, V96I, P101Q, K102R, D103E, L110A, V135I, L137R, K139D, V153I]mTNF-α(1–156) (mouse)
# [20] = target: mTNFα mutant 20, [L1V, Q6R, N7T, S8P, H20P, V22A, E24G, E27Q, S30N, Q31R, M41V, D42E, K44R, V58I, D71S, Y72H, ins 71_T_72, V79I, V96I, P101Q, K102R, D103E, L110A, V135I, L137R, K139D, V153I]mTNF-α(1–156) (mouse)
substance,measurement,setting,value
"mTNFα mutant 1, [Q6R, N7T, S8P]mTNF-α(1–156) (natural protein)",stoichiometry N,[1],3
"mTNFα mutant 2, [Q6R, N7T, S8P, A52S, D53E]mTNF-α(1–156) (natural protein)",stoichiometry N,[2],3
"mTNFα mutant 3, [S30N, Q31R]mTNF-α(1–156) (natural protein)",stoichiometry N,[3],3
"mTNFα mutant 4, [D71S, Y72H, ins 71_T_72]mTNF-α(1–156) (natural protein)",stoichiometry N,[4],3
"mTNFα mutant 5, [P101Q, K102R, D103E, L110A]mTNF-α(1–156) (natural protein)",stoichiometry N,[5],3
"mTNFα mutant 6, D71S, Y72H, ins 71_T_72, P101Q, K102R,D103E,L110A]mTNF-α(1–156) (natural protein)",stoichiometry N,[6],3
"mTNFα mutant 7, [E88T]mTNF-α(1–156) (natural protein)",stoichiometry N,[7],3
"mTNFα mutant 8, [L137R, K139D]mTNF-α(1–156) (natural protein)",stoichiometry N,[8],3
"mTNFα mutant 9, [H20P, V22A, E24G, E27Q]mTNF-α(1–156) (natural protein)",stoichiometry N,[9],3
"mTNFα mutant 10, [H20P, V22A, E24G, E27Q, S30N, Q31R, L137R, K139D]mTNF-α(1–156) (natural protein)",stoichiometry N,[10],3
"mTNFα mutant 11, [Q130R]mTNF-α(1–156) (natural protein)",stoichiometry N,[11],3
"mTNFα mutant 12, [D42E, K44R, F82I, I84V, E88T, Q130R]mTNF-α(1–156) (natural protein)",stoichiometry N,[12],3
"mTNFα mutant 13, [M41V, V58I, V79I, V96I, V135I, V153I]mTNF-α(1–156) (natural protein)",stoichiometry N,[13],3
"mTNFα mutant 14, [H20P, V22A, E24G, E27Q, M41V, V58I, V79I, V96I, V135I, V153I]mTNF-α(1–156) (natural protein)",stoichiometry N,[14],3
"mTNFα mutant 15, [H20P, V22A, E24G, E27Q, S30N, Q31R, M41V, V58I, V79I, V96I, V135I, L137R, K139D, V153I]mTNF-α(1–156) (natural protein)",stoichiometry N,[15],3
"mTNFα mutant 16, [L1V, Q6R, N7T, S8P, H20P, V22A, E24G, E27Q, S30N, Q31R, M41V, V58I, V79I, V96I, V135I, L137R, K139D, V153I]mTNF-α(1–156) (natural protein)",stoichiometry N,[16],3
"mTNFα mutant 17, [L1V, Q6R, N7T, S8P, H20P, V22A, E24G, E27Q, S30N, Q31R, M41V, D42E, K44R, A52S, D53E, V58I, V79I, F82I, I84V, E88T, V96I, Q130R, V135I, L137R, K139D, V153I]mTNF-α(1–156) (natural protein)",stoichiometry N,[17],3
"mTNFα mutant 18, [L1V, Q6R, N7T, S8P, H20P, V22A, E24G, E27Q, S30N, Q31R, M41V, V58I, V79I, V96I, V135I, V153I]mTNF-α(1–156) (natural protein)",stoichiometry N,[18],3
"mTNFα mutant 19, [L1V, Q6R, N7T, S8P, H20P, V22A, E24G, E27Q, S30N, Q31R, M41V, D42E, K44R, V58I, V79I, V96I, P101Q, K102R, D103E, L110A, V135I, L137R, K139D, V153I]mTNF-α(1–156) (natural protein)",stoichiometry N,[19],3
"mTNFα mutant 20, [L1V, Q6R, N7T, S8P, H20P, V22A, E24G, E27Q, S30N, Q31R, M41V, D42E, K44R, V58I, D71S, Y72H, ins 71_T_72, V79I, V96I, P101Q, K102R, D103E, L110A, V135I, L137R, K139D, V153I]mTNF-α(1–156) (natural protein)",stoichiometry N,[20],3

# From paper PMC3755337
